Measured values from IntAct's records for PubMed 22990239.

B1: Heat shock 70 kDa protein 4 (Homo sapiens), P34932 (parent)
chain: MSVVGIDLGFQSCYVAVARAGGIETIANEYSDRCTPACISFGPKNRSIGAAAKSQVISNAKNTVQGFKRFHGRAFSDPFVEAEKSNLAYDIVQLPTGLTGIKVTYMEEERNFTTEQVTAMLLSKLKETAESVLKKPVVDCVVSVPCFYTDAERRSVMDATQIAGLNCLRLMNETTAVALAYGIYKQDLPALEEKPRNVVFVDMGHSAYQVSVCAFNRGKLKVLATAFDTTLGGRKFDEVLVNHFCEEFGKKYKLDIKSKIRALLRLSQECEKLKKLMSANASDLPLSIECFMNDVDVSGTMNRGKFLEMCNDLLARVEPPLRSVLEQTKLKKEDIYAVEIVGGATRIPAVKEKISKFFGKELSTTLNADEAVTRGCALQCAILSPAFKVREFSITDVVPYPISLRWNSPAEEGSSDCEVFSKNHAAPFSKVLTFYRKEPFTLEAYYSSPQDLPYPDPAIAQFSVQKVTPQSDGSSSKVKVKVRVNVHGIFSVSSASLVEVHKSEENEEPMETDQNAKEEEKMQVDQEEPHVEEQQQQTPAENKAESEEMETSQAGSKDKKMDQPPQAKKAKVKTSTVDLPIENQLLWQIDREMLNLYIENEGKMIMQDKLEKERNDAKNAVEEYVYEMRDKLSGEYEKFVSEDDRNSFTLKLEDTENWLYEDGEDQPKQVYVDKLAELKNLGQPIKIRFQESEERPKLFEELGKQIQQYMKIISSFKNKEDQYDHLDAADMTKVEKSTNEAMEWMNNKLNLQNKQSLTMDPVVKSKEIEAKIKELTSTCSPIISKPKPKVEPPKEEQKNAEQNGPVDGQGDNPGPQAAEQGTDTAVPSDSDKKLPEMDID

Variants of: B1
Settings: with hsp7c_human HSPA8, P11142
hsp7c_human HSPA8, P11142, sequence (P11142 whole entry, looked up): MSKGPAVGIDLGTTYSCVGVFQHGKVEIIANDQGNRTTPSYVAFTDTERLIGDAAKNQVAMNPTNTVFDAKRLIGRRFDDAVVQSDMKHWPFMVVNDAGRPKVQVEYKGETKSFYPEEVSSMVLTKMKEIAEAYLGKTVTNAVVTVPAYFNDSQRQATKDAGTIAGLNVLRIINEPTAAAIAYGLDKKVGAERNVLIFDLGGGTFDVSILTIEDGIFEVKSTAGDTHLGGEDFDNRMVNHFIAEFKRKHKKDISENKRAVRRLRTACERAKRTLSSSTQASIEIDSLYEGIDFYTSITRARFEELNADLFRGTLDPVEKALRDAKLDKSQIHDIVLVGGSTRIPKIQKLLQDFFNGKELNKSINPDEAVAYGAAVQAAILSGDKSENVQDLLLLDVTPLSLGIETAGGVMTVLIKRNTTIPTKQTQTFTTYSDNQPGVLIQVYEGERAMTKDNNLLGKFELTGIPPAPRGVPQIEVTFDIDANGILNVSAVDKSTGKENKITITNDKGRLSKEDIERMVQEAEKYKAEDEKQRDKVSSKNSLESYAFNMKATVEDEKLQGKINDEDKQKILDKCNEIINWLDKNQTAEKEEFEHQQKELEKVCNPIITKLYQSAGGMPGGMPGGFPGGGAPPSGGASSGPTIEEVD

| Variant | effect of a mutation on the interaction |
| --- | --- |
| N619Y | decreasing interaction |
| E622A | decreasing interaction |
